We go through six molecules from patent US8623997B2, “Variant Hhip1 protein and methods and uses thereof” (Curis, Inc., priority 2008, dated 2014).

The target in the assay is T1, biotinylated-ShhN-Cys (Homo sapiens, UniProt Q15465).
T1 construct: ShhN-Cys (residues 24-197); His6 (N); made in house; host or cells: E. coli Rosetta 2
The experiment in a line: Bio-layer interferometry (Octet) binding kinetics of Hhip1β12 variants to Shh. The note with it: for Kd / koff × 10^−4 / kon × 10^3: 1:1 binding model, n.d stands for no binding detected; for Shh binding of Hhip1β12 mutants (in words): bio-layer interferometry, compared with WT Hhip1β12. How it is done: The binding kinetics of the Hhip1β12 fragments as well as Hhip1β12 mutants were measured by bio-layer interferometry in the presence or absence of 10 mM EDTA on an Octet (Fortébio). Streptavidin high binding FA biosensors were loaded with biotinylated-ShhN-Cys in kinetic buffer (Fortébio). The loaded biosensors were washed and transferred to wells containing Hhip1β12 protein at concentrations of 1.2, 1.0, 0.8 and 0.6 μM in kinetic buffer. Hhip1β12 association and dissociation was measured for 30 and 20 min, respectively. Kinetic parameters (kon and koff) and affinities (KD) were calculated from a non-linear fit of the data based on a 1:1 binding model between Hhip1β12 and Shh using the Octet software. Multiple independent measurements were performed.
In order to assess the contribution of residues in the Hhip1 L1, L2 and L3 loops for binding to Shh, a series of single alanine Hipβ12 mutants were made using the QuickChange DNA mutagenesis kit (Stratagene) using the manufacturer's protocol, and their affinity for Shh was measured by bio-layer interferometry (as described in Example 2B). These mutations included Hhip1β12 mutants 1312A, E381A, M382A, D383A, D378A, T418A, Q420A, E380A, D387A and ΔL2.

B1: T418A: L3 loop single alanine variant made in the Hhip1β12 construct (protein)
chain: SNYLDQMEEYDKVEEISRKHKHNCFCIQEVVSGLRQPVGALHSGDGSQRLFILEKEGYVKILTPEGEIFKEPYLDIHKLVQSGIKGGDERGLLSLAFHPNYKKNGKLYVSYTTNQERWAIGPHDHILRVVEYTVSRKNPHQVDLRTARVFLEVAELHRKHLGGQLLFGPDGFLYIILGDGMITLDDMEEMDGLSDFTGSVLRLDVDTDMCNVPYSIPRSNPHFNSANQPPEVFAHGLHDPGRCAVDRHPTDININLTILCSDSNGKNRSSARILQIIKGKDYESEPSLLEFKPFSNGPLVGGFVYRGCQSERLYGSYVFGDRNGNFLTLQQSPVTKQWQEKPLCLGTSGSCRGYFSGHILGFGEDELGEVYILSSSKSMTQTHNGKLYKIVDPKRPLMPEECRATVQPAQTLTSECSRLCRNGYCTPTGKCCCSPGWEGDFCRTAKCEPACRHGGVCVRPNKCLCKKGYLGPQCEHHHHHH
Regarding B1, the Kd turned out to be 270 nM, the “koff × 10^−4” value was 9.0 × 10^−4 [s^−1], the “kon × 10^3” value was 3.4 × 10^3 [M^−1 × s^−1] and the “Shh binding of Hhip1β12 mutants (in words)” value (“Shh binding” below) was “little effect on Shh”.

B2: Q420A: L3 loop single alanine variant made in the Hhip1β12 construct (protein)
chain: SNYLDQMEEYDKVEEISRKHKHNCFCIQEVVSGLRQPVGALHSGDGSQRLFILEKEGYVKILTPEGEIFKEPYLDIHKLVQSGIKGGDERGLLSLAFHPNYKKNGKLYVSYTTNQERWAIGPHDHILRVVEYTVSRKNPHQVDLRTARVFLEVAELHRKHLGGQLLFGPDGFLYIILGDGMITLDDMEEMDGLSDFTGSVLRLDVDTDMCNVPYSIPRSNPHFNSTNAPPEVFAHGLHDPGRCAVDRHPTDININLTILCSDSNGKNRSSARILQIIKGKDYESEPSLLEFKPFSNGPLVGGFVYRGCQSERLYGSYVFGDRNGNFLTLQQSPVTKQWQEKPLCLGTSGSCRGYFSGHILGFGEDELGEVYILSSSKSMTQTHNGKLYKIVDPKRPLMPEECRATVQPAQTLTSECSRLCRNGYCTPTGKCCCSPGWEGDFCRTAKCEPACRHGGVCVRPNKCLCKKGYLGPQCEHHHHHH
Turning to B2, the Kd was 500 nM, the “koff × 10^−4” value is 11.0 × 10^−4 [s^−1], the “kon × 10^3” value was 2.1 × 10^3 [M^−1 × s^−1] and the “Shh binding” value is given as “little effect on Shh”.

B3: M382A: L2 loop single alanine variant made in the Hhip1β12 construct (protein)
chain: SNYLDQMEEYDKVEEISRKHKHNCFCIQEVVSGLRQPVGALHSGDGSQRLFILEKEGYVKILTPEGEIFKEPYLDIHKLVQSGIKGGDERGLLSLAFHPNYKKNGKLYVSYTTNQERWAIGPHDHILRVVEYTVSRKNPHQVDLRTARVFLEVAELHRKHLGGQLLFGPDGFLYIILGDGMITLDDMEEADGLSDFTGSVLRLDVDTDMCNVPYSIPRSNPHFNSTNQPPEVFAHGLHDPGRCAVDRHPTDININLTILCSDSNGKNRSSARILQIIKGKDYESEPSLLEFKPFSNGPLVGGFVYRGCQSERLYGSYVFGDRNGNFLTLQQSPVTKQWQEKPLCLGTSGSCRGYFSGHILGFGEDELGEVYILSSSKSMTQTHNGKLYKIVDPKRPLMPEECRATVQPAQTLTSECSRLCRNGYCTPTGKCCCSPGWEGDFCRTAKCEPACRHGGVCVRPNKCLCKKGYLGPQCEHHHHHH
For the molecule B3, the “Shh binding” value is on record as “abolished binding to Shh”.

B4: D378A: L2 loop single alanine variant made in the Hhip1β12 construct (protein)
chain: SNYLDQMEEYDKVEEISRKHKHNCFCIQEVVSGLRQPVGALHSGDGSQRLFILEKEGYVKILTPEGEIFKEPYLDIHKLVQSGIKGGDERGLLSLAFHPNYKKNGKLYVSYTTNQERWAIGPHDHILRVVEYTVSRKNPHQVDLRTARVFLEVAELHRKHLGGQLLFGPDGFLYIILGDGMITLDAMEEMDGLSDFTGSVLRLDVDTDMCNVPYSIPRSNPHFNSTNQPPEVFAHGLHDPGRCAVDRHPTDININLTILCSDSNGKNRSSARILQIIKGKDYESEPSLLEFKPFSNGPLVGGFVYRGCQSERLYGSYVFGDRNGNFLTLQQSPVTKQWQEKPLCLGTSGSCRGYFSGHILGFGEDELGEVYILSSSKSMTQTHNGKLYKIVDPKRPLMPEECRATVQPAQTLTSECSRLCRNGYCTPTGKCCCSPGWEGDFCRTAKCEPACRHGGVCVRPNKCLCKKGYLGPQCEHHHHHH
For the molecule B4, the Kd is 2400 nM, the “koff × 10^−4” value is 3.6 × 10^−4 [s^−1], the “kon × 10^3” value is 0.15 × 10^3 [M^−1 × s^−1] and the “Shh binding” value is recorded as “minor to moderate effects on Shh binding”.

B5: D387A: L2 loop single alanine variant made in the Hhip1β12 construct (protein)
chain: SNYLDQMEEYDKVEEISRKHKHNCFCIQEVVSGLRQPVGALHSGDGSQRLFILEKEGYVKILTPEGEIFKEPYLDIHKLVQSGIKGGDERGLLSLAFHPNYKKNGKLYVSYTTNQERWAIGPHDHILRVVEYTVSRKNPHQVDLRTARVFLEVAELHRKHLGGQLLFGPDGFLYIILGDGMITLDDMEEMDGLSAFTGSVLRLDVDTDMCNVPYSIPRSNPHFNSTNQPPEVFAHGLHDPGRCAVDRHPTDININLTILCSDSNGKNRSSARILQIIKGKDYESEPSLLEFKPFSNGPLVGGFVYRGCQSERLYGSYVFGDRNGNFLTLQQSPVTKQWQEKPLCLGTSGSCRGYFSGHILGFGEDELGEVYILSSSKSMTQTHNGKLYKIVDPKRPLMPEECRATVQPAQTLTSECSRLCRNGYCTPTGKCCCSPGWEGDFCRTAKCEPACRHGGVCVRPNKCLCKKGYLGPQCEHHHHHH
Regarding B5, the “Shh binding” value is “abolished binding to Shh”.

B6: E380A: L2 loop single alanine variant made in the Hhip1β12 construct (protein)
chain: SNYLDQMEEYDKVEEISRKHKHNCFCIQEVVSGLRQPVGALHSGDGSQRLFILEKEGYVKILTPEGEIFKEPYLDIHKLVQSGIKGGDERGLLSLAFHPNYKKNGKLYVSYTTNQERWAIGPHDHILRVVEYTVSRKNPHQVDLRTARVFLEVAELHRKHLGGQLLFGPDGFLYIILGDGMITLDDMAEMDGLSDFTGSVLRLDVDTDMCNVPYSIPRSNPHFNSTNQPPEVFAHGLHDPGRCAVDRHPTDININLTILCSDSNGKNRSSARILQIIKGKDYESEPSLLEFKPFSNGPLVGGFVYRGCQSERLYGSYVFGDRNGNFLTLQQSPVTKQWQEKPLCLGTSGSCRGYFSGHILGFGEDELGEVYILSSSKSMTQTHNGKLYKIVDPKRPLMPEECRATVQPAQTLTSECSRLCRNGYCTPTGKCCCSPGWEGDFCRTAKCEPACRHGGVCVRPNKCLCKKGYLGPQCEHHHHHH
For the molecule B6, the “Shh binding” value is recorded as “minor to moderate effects on Shh binding”. The “Shh binding” value (listed as E380) is given as “abolished binding to Shh”.
